# Test results published in patent US20240034816A1 (Sanofi, published 2024).
# T1: human CD32b (human FcγRIIB) (human, UniProt P31994 43-217, limits assumed)
# T1 construct: also called HuFcyRIIb
# T1 sequence (looked up): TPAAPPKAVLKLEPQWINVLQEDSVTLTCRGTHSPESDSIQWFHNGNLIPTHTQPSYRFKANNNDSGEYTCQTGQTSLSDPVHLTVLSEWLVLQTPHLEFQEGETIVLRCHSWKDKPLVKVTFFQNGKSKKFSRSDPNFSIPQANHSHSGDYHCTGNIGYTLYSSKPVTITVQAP
# B1: NKp46-BCMA_Fc-ADE-DSB NKCE (bispecific antibody, human IgG1, kappa)
# light: QTVVTQEPSLTVSPGGTVTLTCASSTGTVTPSNYANWVQQKPGQAFRGLIGDNNSRPPGTPARFSASLLGGKAALTLSGVQPEDEAEYYCALWFGNQWVFGGGTKLTVLGGGGSGGGGSDIQMTQSPSSLSASVGDRVTITCRASQDISNYLNWYQQKPGKAPKLLIYYTSRLHSGVPSRFSGSGSGTDFTFTISSLQPEDIATYFCQQGNTRPWTFGGGTKVEIKGGGGSGGGGSRTVAAPSVFIFPPSDEQLKSGTASVVCLLNNFYPREAKVQWKVDNALQSGNSQESVTEQDSKDSTYSLSSTLTLSKADYEKHKVYACEVTHQGLSSPVTKSFNRGEC
# heavy: QVQLVQSGAEVKKPGSSVKVSCKASGYTFSDYVINWVRQAPGQGLEWMGEIYPGSGTNYYNEKFKAKATITADKSTSTAYMELSSLRSEDTAVYYCARRGRYGLYAMDYWGQGTTVTVSSQVQLVESGGGVVQPGRSLRLSCAASGFTFSNFGMHWVRQAPGRGLEWVAVIWSDETNRYYADSVKGRFTVSRDNVKSTVYLQMNSLISEDTAVYYCARDQQYCSSDSCFTWFDPWGQGTLVTVSSASTKGPSVFPLAPSSKSTSGGTAALGCLVKDYFPEPVTVSWNSGALTSGVHTFPAVLQSSGLYSLSSVVTVPSSSLGTQTYICNVNHKPSNTKVDKKVEPKSCDKTHTCPPCPAPELLAGPDVFLFPPKPKDTLMISRTPEVTCVVVDVSHEDPEVKFNWYVDGVEVHNAKTKPCEEQYNSTYRCVSVLTVLHQDWLNGKEYKCKVSNKALPAPEEKTISKAKGQPREPQVYTLPPCRDELTKNQVSLWCLVKGFYPSDIAVEWESNGQPENNYKTTPPVLDSDGSFFLYSKLTVDKSRWQQGNVFSCSVMHEALHNHYTQKSLSLSPG
# chain: DKTHTCPPCPAPELLAGPDVFLFPPKPKDTLMISRTPEVTCVVVDVSHEDPEVKFNWYVDGVEVHNAKTKPCEEQYNSTYRCVSVLTVLHQDWLNGKEYKCKVSNKALPAPEEKTISKAKGQPREPQVCTLPPSRDELTKNQVSLSCAVKGFYPSDIAVEWESNGQPENNYKTTPPVLDSDGSFFLVSKLTVDKSRWQQGNVFSCSVMHEALHNRFTQKSLSLSPG
# Columns and labels:
# [1] = molecular target: human neonatal Fc receptor (FcRn) (human, UniProt P55899 24-297; P61769 21-119); test: SPR, binding to huFcRn at pH 6.0
# human neonatal Fc receptor (FcRn), sequence (P55899 24-297 limits assumed, chain 1 of 2): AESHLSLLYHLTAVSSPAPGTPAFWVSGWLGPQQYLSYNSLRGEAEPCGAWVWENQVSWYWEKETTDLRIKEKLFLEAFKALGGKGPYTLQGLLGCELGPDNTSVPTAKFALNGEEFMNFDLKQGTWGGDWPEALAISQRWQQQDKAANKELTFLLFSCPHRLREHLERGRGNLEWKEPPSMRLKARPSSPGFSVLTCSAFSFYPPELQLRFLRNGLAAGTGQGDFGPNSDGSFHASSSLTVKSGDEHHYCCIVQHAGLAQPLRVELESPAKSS
# human neonatal Fc receptor (FcRn), sequence (P61769 21-119 limits assumed, chain 2 of 2): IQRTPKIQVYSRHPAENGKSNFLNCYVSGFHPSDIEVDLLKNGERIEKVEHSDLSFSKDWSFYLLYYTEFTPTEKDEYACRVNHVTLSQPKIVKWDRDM
# cynomolgus CD32a = molecular target: T2, cynomolgus CD32a (cynomolgus); test: SPR, fit Steady State Affinity, mean of 3 experiments
# T2 construct: also called CyFcyRIIa
# cynomolgus CD32b = molecular target: T3, cynomolgus CD32b (cynomolgus); test: as above
# T3 construct: also called CyFcyRIIb
# [2] = molecular target: T1, human CD32b (human FcγRIIB); test: as above
# [3] = molecular target: T4, human CD16b (human FcgRIIIB) (human, UniProt O75015 17-200, limits assumed); test: as above
# T4 construct: also called HuFcyRIIIb
# T4 sequence (O75015 17-200 limits assumed): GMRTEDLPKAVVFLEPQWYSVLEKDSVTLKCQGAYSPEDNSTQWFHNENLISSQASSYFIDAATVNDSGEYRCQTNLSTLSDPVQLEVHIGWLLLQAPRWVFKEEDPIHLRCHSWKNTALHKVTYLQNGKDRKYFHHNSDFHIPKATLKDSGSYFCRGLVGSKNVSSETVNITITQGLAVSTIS
# [4] = molecular target: T5, recombinant human NKp46 extracellular domain (Gln22-Asn255) with C-terminal 6xHis tag (human, UniProt O76036 22-255); test: SPR (Biacore 8K), NKCE captured by anti-human Fc, antigen as analyte, 1:1 model; Experiment No 1
# T5 construct: range 22-255; also called huNKp46
# T5 sequence (O76036 other isoform, or with tags, fused parts or gaps limits assumed): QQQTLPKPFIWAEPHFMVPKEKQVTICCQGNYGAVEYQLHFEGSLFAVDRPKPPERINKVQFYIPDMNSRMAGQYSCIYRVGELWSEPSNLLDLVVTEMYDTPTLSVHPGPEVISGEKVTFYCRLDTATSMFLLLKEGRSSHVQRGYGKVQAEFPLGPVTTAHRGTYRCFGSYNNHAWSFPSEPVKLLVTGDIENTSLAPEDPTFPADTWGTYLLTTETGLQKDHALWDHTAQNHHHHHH
# Protocol: (§1) Measurements were performed in multicycle kinetics experiments for each antibody using a Biacore 8K instrument. In each multicycle experiment the antibodies were captured via an anti-hum a Fc antibody immobilized on a series S CM5 sensor chip (human antibody capture kit, Cytiva, Uppsala, Catalog No. BR1008-39).
# (§2) The antigens, diluted as described above (concentration range 0.1 nM to 50 nM), were injected at a flow rate of 60 μL/min for 240 sec followed by a dissociation phase of 400 sec. All analyte concentrations were run in duplicate together with multiple buffer blanks for double referencing. Regeneration of the capture surface was performed with regeneration solution (3 mol/L MgCl2) for 60 sec at 30 μL/min. Binding kinetics data were evaluated with the Biacore 8K Evaluation Software version 1.1.1.7442 using a 1:1 binding model with mass transport limitation.
# [5] = molecular target: T6, recombinant cynomolgus NKp46 extracellular domain with C-terminal Flag-M2 tag (cynomolgus, UniProt Q95JB9 22-254); test: as above
# T6 construct: range 22-254; also called cyno NKp46; not shown: C-terminal Flag-M2 tag
# T6 sequence (Q95JB9 22-254): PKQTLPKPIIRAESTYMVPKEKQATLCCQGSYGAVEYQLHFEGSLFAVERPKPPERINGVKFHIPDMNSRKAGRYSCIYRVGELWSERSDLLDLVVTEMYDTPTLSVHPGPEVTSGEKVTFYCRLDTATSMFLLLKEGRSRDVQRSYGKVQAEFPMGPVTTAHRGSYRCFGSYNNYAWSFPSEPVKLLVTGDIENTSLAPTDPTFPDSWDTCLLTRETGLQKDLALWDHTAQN
# Protocol: as §1, §2
# recombinant human BCMA [6] = molecular target: T7, recombinant human BCMA (human, UniProt Q02223 1-54); test: as above
# Protocol: as §1, §2
# cyno BCMA (PPB-17990) [7] = molecular target: T8, cyno BCMA (PPB-17990) (cynomolgus, UniProt A0A2K5UD97 1-53); test: as above
# T8 construct: also called cynomolgus BCMA
# T8 sequence (A0A2K5UD97 entry or part of it): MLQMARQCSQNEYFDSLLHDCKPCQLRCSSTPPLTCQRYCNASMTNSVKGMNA
# Protocol: as §1, §2
# [8] = molecular target: T5, recombinant human NKp46 extracellular …; test: SPR (Biacore 8K), NKCE captured by anti-human Fc, antigen as analyte, 1:1 model; Experiment No 2
# Protocol: as §1, §2
# [9] = molecular target: T6, recombinant cynomolgus NKp46 …; test: as above
# Protocol: as §1, §2
# recombinant human BCMA [10] = molecular target: T7, recombinant human BCMA; test: as above
# Protocol: as §1, §2
# cyno BCMA (PPB-17990) [11] = molecular target: T8, cyno BCMA (PPB-17990); test: as above
# Protocol: as §1, §2
# [12] = molecular target: T5, recombinant human NKp46 extracellular …; test: SPR (Biacore 8K), NKCE captured by anti-human Fc, antigen as analyte, 1:1 model; Experiment No 3
# Protocol: as §1, §2
# [13] = molecular target: T6, recombinant cynomolgus NKp46 …; test: as above
# Protocol: as §1, §2
# recombinant human BCMA [14] = molecular target: T7, recombinant human BCMA; test: as above
# Protocol: as §1, §2
# Target sequence in this assay (Q02223 1-54 limits assumed): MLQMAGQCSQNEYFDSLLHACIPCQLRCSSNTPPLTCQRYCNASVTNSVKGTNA
# cyno BCMA (PPB-17990) [15] = molecular target: T8, cyno BCMA (PPB-17990); test: as above
# Protocol: as §1, §2
binder,measurement,setting,value
B1,Kd,[1],0.756 µM
same,Kd,cynomolgus CD32a,1.5 µM
same,Kd,cynomolgus CD32b,1.08 µM
same,Kd,[2],1.28 µM
same,Kd,[3],1.76 µM
same,Kd,[4],0.0118 µM
same,koff,[4],0.0019 s⁻¹
same,kon,[4],160000 M⁻¹ s⁻¹
same,Kd,[5],0.0166 µM
same,koff,[5],0.003 s⁻¹
same,kon,[5],210000 M⁻¹ s⁻¹
same,Kd,recombinant human BCMA [6],0.0002 µM
same,koff,recombinant human BCMA [6],6.1e-05 s⁻¹
same,kon,recombinant human BCMA [6],280000 M⁻¹ s⁻¹
same,Kd,cyno BCMA (PPB-17990) [7],0.0004 µM
same,koff,cyno BCMA (PPB-17990) [7],7.2e-05 s⁻¹
same,kon,cyno BCMA (PPB-17990) [7],170000 M⁻¹ s⁻¹
same,Kd,[8],0.0132 µM
same,koff,[8],0.0018 s⁻¹
same,kon,[8],140000 M⁻¹ s⁻¹
same,Kd,[9],0.0162 µM
same,koff,[9],0.0034 s⁻¹
same,kon,[9],210000 M⁻¹ s⁻¹
same,Kd,recombinant human BCMA [10],0.0002 µM
same,koff,recombinant human BCMA [10],6.9e-05 s⁻¹
same,kon,recombinant human BCMA [10],320000 M⁻¹ s⁻¹
same,Kd,cyno BCMA (PPB-17990) [11],0.0003 µM
same,koff,cyno BCMA (PPB-17990) [11],5.8e-05 s⁻¹
same,kon,cyno BCMA (PPB-17990) [11],180000 M⁻¹ s⁻¹
same,Kd,[12],0.0125 µM
same,koff,[12],0.0018 s⁻¹
same,kon,[12],140000 M⁻¹ s⁻¹
same,Kd,[13],0.0178 µM
same,koff,[13],0.0033 s⁻¹
same,kon,[13],190000 M⁻¹ s⁻¹
same,Kd,recombinant human BCMA [14],0.0003 µM
same,koff,recombinant human BCMA [14],5.7e-05 s⁻¹
same,kon,recombinant human BCMA [14],190000 M⁻¹ s⁻¹
same,Kd,cyno BCMA (PPB-17990) [15],0.0003 µM
same,koff,cyno BCMA (PPB-17990) [15],6e-05 s⁻¹
same,kon,cyno BCMA (PPB-17990) [15],180000 M⁻¹ s⁻¹
